Molecular target: SARS-CoV-2 Omicron BA.2 spike RBD (UniProt P0DTC2)
Assay: SPR

| Substance | Kd [nM] |
| --- | --- |
| raccoon dog ACE2 (rdACE2), peptidase domain (PD), wild type (from UniProt B4XEP4) E38D | 245 |
| raccoon dog ACE2 (rdACE2), peptidase domain (PD), wild type (from UniProt B4XEP4) R353K | 136 |
| raccoon dog ACE2 (rdACE2), peptidase domain (PD), wild type (from UniProt B4XEP4) L24Q | 283 |
